Test results from IntAct's records for PubMed 18560563.

B1: Bifunctional UDP-N-acetylglucosamine 2-epimerase/N-acetylmannosamine kinase (Homo sapiens), Q9Y223 (parent)
chain: MEKNGNNRKLRVCVATCNRADYSKLAPIMFGIKTEPEFFELDVVVLGSHLIDDYGNTYRMIEQDDFDINTRLHTIVRGEDEAAMVESVGLALVKLPDVLNRLKPDIMIVHGDRFDALALATSAALMNIRILHIEGGEVSGTIDDSIRHAITKLAHYHVCCTRSAEQHLISMCEDHDRILLAGCPSYDKLLSAKNKDYMSIIRMWLGDDVKSKDYIVALQHPVTTDIKHSIKMFELTLDALISFNKRTLVLFPNIDAGSKEMVRVMRKKGIEHHPNFRAVKHVPFDQFIQLVAHAGCMIGNSSCGVREVGAFGTPVINLGTRQIGRETGENVLHVRDADTQDKILQALHLQFGKQYPCSKIYGDGNAVPRILKFLKSIDLQEPLQKKFCFPPVKENISQDIDHILETLSALAVDLGGTNLRVAIVSMKGEIVKKYTQFNPKTYEERINLILQMCVEAAAEAVKLNCRILGVGISTGGRVNPREGIVLHSTKLIQEWNSVDLRTPLSDTLHLPVWVDNDGNCAALAERKFGQGKGLENFVTLITGTGIGGGIIHQHELIHGSSFCAAELGHLVVSLDGPDCSCGSHGCIEAYASGMALQREAKKLHDEDLLLVEGMSVPKDEAVGALHLIQAAKLGNAKAQSILRTAGTALGLGVVNILHTMNPSLVILSGVLASHYIHIVKDVIRQQALSSVQDVDVVVSDLVDPALLGAASMVLDYTTRRIY

Variants of: B1
Details: with actn1_human ACTN1, P12814
actn1_human ACTN1, P12814, sequence (P12814 whole entry): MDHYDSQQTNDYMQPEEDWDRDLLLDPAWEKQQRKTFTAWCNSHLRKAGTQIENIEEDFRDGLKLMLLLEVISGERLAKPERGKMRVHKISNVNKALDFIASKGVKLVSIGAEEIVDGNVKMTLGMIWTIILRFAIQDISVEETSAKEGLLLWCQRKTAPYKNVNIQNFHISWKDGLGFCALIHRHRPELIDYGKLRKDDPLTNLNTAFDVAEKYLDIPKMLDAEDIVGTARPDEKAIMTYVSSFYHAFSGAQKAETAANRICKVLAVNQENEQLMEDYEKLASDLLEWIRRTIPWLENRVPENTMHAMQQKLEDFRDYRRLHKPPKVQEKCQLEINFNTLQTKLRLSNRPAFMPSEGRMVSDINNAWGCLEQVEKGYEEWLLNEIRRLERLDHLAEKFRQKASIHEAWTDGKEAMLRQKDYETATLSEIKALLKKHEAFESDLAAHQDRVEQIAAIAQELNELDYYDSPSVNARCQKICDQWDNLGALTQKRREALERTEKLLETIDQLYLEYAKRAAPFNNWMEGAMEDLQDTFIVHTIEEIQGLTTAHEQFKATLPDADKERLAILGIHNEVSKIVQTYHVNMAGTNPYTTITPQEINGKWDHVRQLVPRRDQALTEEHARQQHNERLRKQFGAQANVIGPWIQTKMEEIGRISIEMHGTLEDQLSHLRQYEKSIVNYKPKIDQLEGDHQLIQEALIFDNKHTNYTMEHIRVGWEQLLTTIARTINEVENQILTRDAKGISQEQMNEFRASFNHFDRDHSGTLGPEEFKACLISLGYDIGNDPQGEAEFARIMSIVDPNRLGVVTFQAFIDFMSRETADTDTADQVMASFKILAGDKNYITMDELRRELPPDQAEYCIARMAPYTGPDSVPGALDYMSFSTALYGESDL

Row | effect of a mutation on the interaction | Variant
1 | with no effect | M712T
